This experiment concerns the target T1, recombinant human SOST (human, UniProt Q9BQB4 24-213, labeled with Cy5 (site not stated)).
T1 construct: Acceptor-labelled partner in the FRET assay; also called sclerostin; Cy5-SOST
T1 sequence (looked up): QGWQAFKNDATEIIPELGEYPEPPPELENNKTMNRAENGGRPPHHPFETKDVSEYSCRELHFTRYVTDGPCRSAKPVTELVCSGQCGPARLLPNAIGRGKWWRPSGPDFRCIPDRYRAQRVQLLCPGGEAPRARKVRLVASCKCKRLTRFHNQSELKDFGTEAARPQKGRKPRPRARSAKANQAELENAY
As to the kind of experiment: FRET competition assay (inhibition of SOST binding to LRP6(Fc)), antibody released from the PBS gel.

B1: ANTIBODY 1 (antibody, human IgG2, lambda, V domains shown)
VH: QVQLVESGGGLVQPGGSLRLSCAASGFTFRSHWLSWVRQAPGKGLEWVSNINYDGSSTYYADSVKGRFTISRDNSKNTLYLQMNSLRAEDTAVYYCARDTYLHFDYWGQGTLVTVSS
VL: DIALTQPASVSGSPGQSITISCTGTSSDVGDINDVSWYQQHPGKAPKLMIYDVNNRPSGVSNRFSGSKSGNTASLTISGLQAEDEADYYCQSYAGSYLSEVFGGGTKLTVLG
notes: also called anti-sclerostin antibody; mAb
For the molecule B1, the binding result is recorded as “binds”.

(Values after patent WO2012028683A1 (dated 2012).)
